Target: the molecule itself
Experiment: non-reducing SDS-PAGE with Western blot; purified hrTFF1 loaded without reducing agents to preserve the disulfide bonds; probed with polyclonal anti-TFF1 antibody

B1: human recombinant protein TFF1 (trefoil factor 1) (natural protein, UniProt P04155 25-84, looked up)
chain: EAQTETCTVAPRERQNCGFPGVTPSQCANKGCCFDDTVRGVPWCFYPNTIDVPPEEECEF
notes: Trefoil factor 1 (TFF1), human, recombinant from the hrTFF1-pIVEX vector; It is probably the mature secreted TFF1 without its signal peptide (surmised); The homodimer is held by disulfide bonds, since it is seen only under non-reducing conditions; also called hrTFF1; hTFF1; source: E. coli BLR (DE3) pLysS, purified (HisTrap HP, Factor Xa digestion, second HisTrap pass)
**Q.** For B1, which “stoichiometry N” value is on record?
**A.** 2

— PMC7918695, “TFF1 Induces Aggregation and Reduces Motility of Helicobacter pylori” (International Journal of Molecular Sciences, 2021)
